Data taken from publication PMC4506568, “Targeting a Dynamic Protein–Protein Interaction: Fragment Screening against the Malaria Myosin A Motor Complex” (Chemmedchem, 2014).
pKd: −log10 of the molar value.

Columns and labels:
[1] = target: Plasmodium falciparum myosin A tail domain interacting protein, residues 61–204 (PfMTIPΔ60) (Plasmodium falciparum) (UniProt Q8I4W8); assay: differential scanning fluorimetry; 5 μM PfMTIPΔ60 with 200 μM peptide in buffer A (20 mM HEPES pH 7.5, 50 mM NaCl, 1 mM TCEP), 10× SYPRO Orange, 15–80 °C
[2] = target: Plasmodium falciparum myosin A tail domain interacting protein, residues 61–204 (PfMTIPΔ60) (Plasmodium falciparum) (UniProt Q8I4W8); assay: ITC; 303 K; cell with about 200 μL of 20 μM PfMTIPΔ60 in buffer A (20 mM HEPES pH 7.5, 50 mM NaCl, 1 mM TCEP); peptide added in 2 μL injections from 250 μM; single site fit; n=1

Substance	Tm of the complex [1] [°C]	pKd [2]
acetylated peptide control1 (acetyl-capped myoA tail from Leu 805) (from UniProt Q8IDR3 805-818)	45.4	–
acetylated peptide control2 (acetyl-capped myoA tail from Leu 804) (from UniProt Q8IDR3 804-818)	54.5	–
acetylated peptide control3 (acetyl-capped myoA tail from Ser 803) (from UniProt Q8IDR3 803-818)	54.9	6.97
